Where a chain is given by its changes, count along the chain named.
T1: human IFNAR-1 on cells (human, UniProt P17181 28-557)
T1 sequence (looked up): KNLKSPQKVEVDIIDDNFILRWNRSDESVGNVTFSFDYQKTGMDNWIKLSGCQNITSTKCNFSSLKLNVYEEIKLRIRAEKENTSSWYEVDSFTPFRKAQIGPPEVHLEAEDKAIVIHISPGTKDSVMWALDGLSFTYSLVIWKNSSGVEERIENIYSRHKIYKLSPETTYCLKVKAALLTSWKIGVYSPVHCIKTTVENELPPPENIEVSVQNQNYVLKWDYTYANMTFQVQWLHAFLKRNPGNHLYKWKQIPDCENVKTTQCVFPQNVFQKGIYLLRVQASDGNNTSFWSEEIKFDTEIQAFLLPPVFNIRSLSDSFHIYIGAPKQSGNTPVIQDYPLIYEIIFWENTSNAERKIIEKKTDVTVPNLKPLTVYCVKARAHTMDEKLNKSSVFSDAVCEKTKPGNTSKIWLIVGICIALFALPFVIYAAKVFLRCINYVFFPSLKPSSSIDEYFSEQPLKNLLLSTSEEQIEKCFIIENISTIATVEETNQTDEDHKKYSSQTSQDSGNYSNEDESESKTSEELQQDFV

T2: recombinant His-tagged human IFNAR-1-ECD protein (human, UniProt P17181 28-436)
T2 construct: extracellular domain; the Biacore text says His-tagged human IFNAR-1-ECD; also called His-tagged IFNAR-1; hIFNAR-1 protein; not shown: His tag
T2 sequence (looked up): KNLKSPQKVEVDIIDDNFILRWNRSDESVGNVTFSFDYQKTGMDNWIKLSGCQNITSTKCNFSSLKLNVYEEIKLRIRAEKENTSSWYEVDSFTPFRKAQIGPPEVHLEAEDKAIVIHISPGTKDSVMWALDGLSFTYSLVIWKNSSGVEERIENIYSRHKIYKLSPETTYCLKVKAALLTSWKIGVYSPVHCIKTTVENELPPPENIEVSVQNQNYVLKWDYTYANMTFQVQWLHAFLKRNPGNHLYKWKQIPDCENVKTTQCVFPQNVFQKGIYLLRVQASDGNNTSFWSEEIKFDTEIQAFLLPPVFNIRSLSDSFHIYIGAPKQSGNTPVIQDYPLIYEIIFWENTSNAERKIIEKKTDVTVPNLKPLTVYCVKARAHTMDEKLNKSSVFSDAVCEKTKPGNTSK

T3: hIFNAR-1(1aa-409aa) H273A (human, UniProt P17181 28-436)
T3 construct: range 1-409
T3 sequence (looked up): T2 sequence (looked up) with H246A

T4: hIFNAR-1(1aa-409aa) L274A (human, UniProt P17181 28-436)
T4 construct: range 1-409
T4 sequence (looked up): T2 sequence (looked up) with L247A

T5: hIFNAR-1(1aa-409aa) Y275A (human, UniProt P17181 28-436)
T5 construct: range 1-409
T5 sequence (looked up): T2 sequence (looked up) with Y248A

T6: hIFNAR-1(1aa-409aa) K276A (human, UniProt P17181 28-436)
T6 construct: range 1-409
T6 sequence (looked up): T2 sequence (looked up) with K249A

T7: hIFNAR-1(1aa-409aa) K278A (human, UniProt P17181 28-436)
T7 construct: range 1-409
T7 sequence (looked up): T2 sequence (looked up) with K251A

T8: human IFNAR-1 protein (form not stated) (human, UniProt P17181 28-436, limits assumed)
T8 construct: bispecific ELISA
T8 sequence (looked up): T2 sequence (looked up)

B1: 4D8 (antibody, V domains shown)
VH: EVRLQQSGAELVQPGASVKLSCTGFGFNIKDYYMHWVKQRTEQGLEWIGRIDPEDAETKYAPKFQGQATITADTSSNTAYVQVSSLSSEDTAVYYCARGGNFYVMDYWGQGTSVTVSS
VL: DIVMTQSQKFMSTSVGDRVSVTCKASQNVGTNVVWYQQKPGQSPKVLIYSASYRYSGVPDRFTGSGSGTDFTLIISNVQSEDLAEYFCQQKNSYPYTFGGGTKLEIK
notes: Hybridoma-derived monoclonal antibody; Chimeric human IgG1 Fc versions were also made
B2: 8G11 (antibody, V domains shown)
VH: B1 VH with R3Q, Q13K, T41A, A56G, Q67K, V81L, S87T
VL: B1 VL with Y55V, S93N
notes: Hybridoma-derived monoclonal antibody; also called mouse antibody 8G11
B3: 34H8 (antibody, V domains shown)
VH: EVQLLQSGAELVKPGASVRLSCTASGFNIKDYYLHWVKQRTEQGLEWIGRIDPEDGETKYAPKFQGKATITTDTSSNTAYLQLSSLTSEDTAVYYCTRGGNYDVMDYWGQGTSVTVSS
VL: B1 VL with N32Y, V46A, I74T, S76G, S93T, Y96F, K107E
notes: Hybridoma-derived monoclonal antibody
B4: 485G10 chimeric antibody (antibody, V domains shown)
VH: EVQLQQSGAELVKPGASVKLSCTGSGFNIKDYYIHWVKQRTEQGLEWIGRIDPEDGETKYAPKFQGKATITADTSSNTAYLQLSSLTSEDTVVYYCGRYHGYWALDYWGQGTSVTVSS
VL: B1 VL with A25T, V34A, V46P, A51T, Q89H, K91Y, N92F, K103L
B5: 8G11 Fab (Fab, V domains shown)
VH: B1 VH with R3Q, Q13K, T41A, A56G, Q67K, V81L, S87T
VL: B1 VL with Y55V, S93N
B6: 8G11-H1L1 (antibody, V domains shown)
VH: QVQLVQSGAEVKKPGASVKVSCKASGFNIKDYYMHWVRQAPGQGLEWMGRIDPEDAETKYAPKFQGRVTMTRDTSTSTVYMELSSLRSEDTAVYYCARGGNFYVMDYWGQGTLVTVSS
VL: DIQLTQSPSFLSASVGDRVTITCKASQNVGTNVVWYQQKPGKAPKLLIYSASYRVSGVPSRFSGSGSGTEFTLTISSLQPEDFATYYCQQKNNYPYTFGQGTKLEIK
notes: Humanized IgG expressed in HEK293; also called VH1 + VL1 (8G11)

Assays:
human IFNAR-1 on cells [1] = molecular target: T1, human IFNAR-1 on cells; assay: cell-based or functional assay
[2] = molecular target: T2, recombinant His-tagged human …; assay: ELISA, coated His-tagged IFNAR-1
Procedure: This example tested the binding properties of the anti-IFNAR-1 mouse antibodies to the human IFNAR-1 proteins by ELISA assay. In short, His-tagged IFNAR-1 was coated at 0.5 μg/ml overnight and then blocked by 5% BSA in PBS. Serial diluted anti-IFNAR-1 antibodies were incubated with the coated antigen for 1 h at room temperature. The resulting plates were washed with PBS/T and incubated with goat anti-mouse IgG-HRP for 1 h at room temperature. The plates were developed with TMB substrate and analyzed by spectrophotometer at OD 450-630 nm.

[3] = molecular target: T2, recombinant His-tagged human …; assay: SPR (Biacore T200), antibody captured, His-tagged IFNAR-1-ECD as analyte
Procedure: The binding of the antibodies to recombinant His-tagged human IFNAR-1-ECD protein was examined by Biacore T200 using a capture method. The anti-IFNAR-1 antibodies were captured using anti-human Fc antibody or Protein A which were coated on chip. The serial concentrations of his-tagged human IFNAR-1-ECD protein (0-8 nM) were injected over capture antibodies at the flow rate of 30 μl/min. The dissociation phases were 600 s or 1200 s.

human IFNAR-1 on cells [4] = molecular target: T1, human IFNAR-1 on cells; assay: cell-based or functional assay; remark: listed apart in the source
[5] = molecular target: T3, hIFNAR-1(1aa-409aa) H273A; assay: flow cytometry on alanine scan clone, normalised to WT
Excerpt: (§1) For each point, background fluorescence was subtracted from the raw data, which were then normalized to Fab reactivity with WT target protein. For each mutant clone, the mean binding value was plotted as a function of expression (represented by control reactivity).

[6] = molecular target: T4, hIFNAR-1(1aa-409aa) L274A; assay: as above
Excerpt: as §1

[7] = molecular target: T5, hIFNAR-1(1aa-409aa) Y275A; assay: as above
Excerpt: as §1

[8] = molecular target: T6, hIFNAR-1(1aa-409aa) K276A; assay: as above
Excerpt: as §1

[9] = molecular target: T7, hIFNAR-1(1aa-409aa) K278A; assay: as above
Excerpt: as §1

[10] = molecular target: T8, human IFNAR-1 protein (form not stated); assay: affinity ranking of expressed humanized 8G11 IgGs (method not named)
[11] = molecular target: T8, human IFNAR-1 protein (form not stated); assay: affinity measurement of purified IgG at different concentrations (method not named)

Binder | EC50 (nM), inhibition of IFNα2b-induced SEAP reporter in HEK-Blue IFNα/β cells (human IFNAR-1 on cells [1]) [nM] | EC50 [2] [nM] | Kd [3] [nM] | koff [3] [s⁻¹] | kon [3] [M⁻¹ s⁻¹] | other results
B1 | 0.46 | 0.067 | 0.039 | 9.03e-05 | 2.31e+06 | 
B2 | 0.465 | 0.069 | 0.0271 | 6.4e-05 | 2.36e+06 | 
B3 | 0.56 | 0.064 | 0.0186 | 4.41e-05 | 2.37e+06 | 
B4 |  |  |  |  |  | EC50 (nM), IFNα2b-mediated anti-viral assay (Huh7-Con1b HCV replicon luciferase) (human IFNAR-1 on cells [4]): 16.3 nM
B5 |  |  |  |  |  | Binding Reactivity (% WT) [5]: 31.2 % WT; Binding Reactivity (% WT) [6]: 22.7 % WT; Binding Reactivity (% WT) [7]: 19.1 % WT; Binding Reactivity (% WT) [8]: 1.5 % WT; Binding Reactivity (% WT) [9]: 3.9 % WT
B6 |  |  |  |  |  | Kd [10]: 0.662 nM; koff [10]: 9.83e-05 s⁻¹; kon [10]: 148000 M⁻¹ s⁻¹; Kd [11]: 1.36 nM; koff [11]: 0.000219 s⁻¹; kon [11]: 161000 M⁻¹ s⁻¹

Source: patent publication US20200399381A1 (I MAB BIOPHARMA US, published 2020)
